Bridges are numbered along the chain shown (N, C = ends). Primed or numbered codes have the meaning given here. Where no end group is shown, it is not given here. [ ]: non-standard residue; d: D form. The star is where a group is joined. S5′ = (S)-2-(4'-pentenyl)alanine, olefinic stapling residue closed by ring-closing metathesis; NMeQ′ = N-methylglutamine (N-alpha-methyl, stereo named both D and L in the filing); Phe(3,4-Cl2) = N[C@@H](Cc1ccc(Cl)c(Cl)c1)C(=O)O; PEG4″ = PEG4 (tetraethylene glycol) spacer; Phe(4-Cl) = N[C@@H](Cc1ccc(Cl)cc1)C(=O)O; Phe(4-F) = N[C@@H](Cc1ccc(F)cc1)C(=O)O; 2Nal = N[C@@H](Cc1ccc2ccccc2c1)C(=O)O; Palmitoyl = CCCCCCCCCCCCCCCC(=O)*; hArg = N=C(N)NCCCC[C@H](N)C(=O)O; NMeQ = CN[C@@H](CCC(N)=O)C(=O)O; dNMeQ = CN[C@H](CCC(N)=O)C(=O)O; Cha = N[C@@H](CC1CCCCC1)C(=O)O; Cba = N[C@@H](CC1CCC1)C(=O)O; S5 = C=CCCC[C@](C)(N)C(=O)O; NMeC = CN[C@@H](CS)C(=O)O
T1: β-catenin (UniProt P35222 1-781, limits assumed)
T1 construct: also called beta-catenin
T1 sequence (looked up): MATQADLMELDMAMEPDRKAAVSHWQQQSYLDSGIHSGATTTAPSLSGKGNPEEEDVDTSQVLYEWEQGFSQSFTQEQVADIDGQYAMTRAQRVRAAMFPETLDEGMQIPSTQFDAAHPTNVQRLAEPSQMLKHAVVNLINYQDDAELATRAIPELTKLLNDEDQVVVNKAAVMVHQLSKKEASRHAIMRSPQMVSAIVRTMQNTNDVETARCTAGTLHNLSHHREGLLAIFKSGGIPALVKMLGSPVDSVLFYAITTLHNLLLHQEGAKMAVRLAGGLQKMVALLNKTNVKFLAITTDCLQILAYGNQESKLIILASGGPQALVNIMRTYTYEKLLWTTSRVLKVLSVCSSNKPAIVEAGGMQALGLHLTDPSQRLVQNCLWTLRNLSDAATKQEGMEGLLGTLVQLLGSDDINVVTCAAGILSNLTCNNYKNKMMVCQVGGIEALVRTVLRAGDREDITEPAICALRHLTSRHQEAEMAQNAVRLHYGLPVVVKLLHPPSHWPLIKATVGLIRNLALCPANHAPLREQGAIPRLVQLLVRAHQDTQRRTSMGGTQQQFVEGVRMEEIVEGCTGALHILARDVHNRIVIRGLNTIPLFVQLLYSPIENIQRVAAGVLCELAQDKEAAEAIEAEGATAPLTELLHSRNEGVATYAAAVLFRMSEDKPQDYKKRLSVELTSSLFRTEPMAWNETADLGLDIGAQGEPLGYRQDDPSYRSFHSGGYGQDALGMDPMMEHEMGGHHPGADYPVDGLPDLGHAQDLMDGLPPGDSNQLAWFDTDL


Molecular target: T1, β-catenin
Experiment: ALPHA Screen (BCL9/β-catenin);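 note: bead proximity readout with the polypeptide linked to donor beads and β-catenin fixed on acceptor beads, their binding bringing the beads close enough to emit signal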
Excerpt: In this assay, a polypeptide is conjugated to a donor bead and its target protein (i.e., β-catenin) is attached to an acceptor bead. When the two beads are in proximity due to the binding of the polypeptide to the target protein, a signal is generated and the binding affinity of the polypeptide can be quantitatively calculated. The assay may be conducted in the presence or absence of an unconjugated control polypeptide.

| Binder | IC50 |
| --- | --- |
| LQTLRDIQRML[2Nal]PD [SEQ ID NO: 53] | 27.9 µM |
| Ac-LQTLR[S5]IQR[S5]A[2Nal]-NH2 (staple 6-10) [SEQ ID NO: 77] | 7.68 µM |
| Ac-LQTLR[S5]IQK[S5]L[2Nal]-NH2 (staple 6-10) [SEQ ID NO: 101] | 10.6 µM |
| Ac-LQTLR[S5′]IQE[S5′]L[2Nal]-NH2 (staple 6-10) [SEQ ID NO: 99] | 50 µM |
| Ac-AQTAR[S5]IQR[S5]L[2Nal]-NH2 (staple 6-10; SMILES CC[C@H](C)[C@@H]1NC(=O)[C@@](C)(NC(=O)[C@H](CCCNC(=N)N)NC(=O)[C@H](C)NC(=O)[C@@H](NC(=O)[C@H](CCC(N)=O)NC(=O)[C@H](C)NC(C)=O)[C@@H](C)O)CCCC=CCCC[C@@](C)(C(=O)N[C@@H](CC(C)C)C(=O)N[C@@H](Cc2ccc3ccccc3c2)C(N)=O)NC(=O)[C@H](CCCNC(=N)N)NC(=O)[C@H](CCC(N)=O)NC1=O) [SEQ ID NO: 21] | 7.61 µM |
| Ac-LQTAR[S5]AQR[S5]L[2Nal]-NH2 (staple 6-10; not fully specified; printed as LQTARXAQRXL(2-Nal)) [SEQ ID NO: 22] | 11.4 µM |
| Ac-LQT[Cba]R[S5]IQR[S5][Cba][2Nal]-NH2 (staple 6-10) [SEQ ID NO: 115] | 4.53 µM |
| Ac-[dL]QTIR[S5]IQR[S5]L[2Nal]-NH2 (staple 6-10) [SEQ ID NO: 102] | 6.84 µM |
| Ac-LQTLR[S5]AQR[S5]A[2Nal]-NH2 (staple 6-10; not fully specified; printed as LQTLRXAQRXA(2-Nal)) [SEQ ID NO: 23] | 30 µM |
| Ac-LQT[dL]R[S5]IQR[S5]L[2Nal]-NH2 (staple 6-10) [SEQ ID NO: 103] | 2.86 µM |
| Ac-LQTLK[S5]IQR[S5]L[2Nal]-NH2 (staple 6-10) [SEQ ID NO: 100] | 14.4 µM |
| [Cba][dNMeQ]TLR[S5]IQR[S5][Cba][2Nal] (staple 6-10; not fully specified (N-terminus, C-terminus); printed as (CBA)(N-methylQ)TLRXIQRX(CBA)(2-Nal), X/X stapled, (S) α-methyl, N-terminal Ac, C-terminal NH2) [SEQ ID NO: 114] | 4.9 µM |
| Ac-[Cba]QTLR[S5]IQR[S5][Cba][2Nal]-NH2 (staple 6-10) [SEQ ID NO: 113] | 6.99 µM |
| Ac-LQTLR[S5]IQH[S5][Cba][2Nal]-NH2 (staple 6-10) [SEQ ID NO: 112] | 5.65 µM |
| Ac-LQTLE[S5′]IQR[S5′]L[2Nal]-NH2 (staple 6-10) [SEQ ID NO: 98] | 47.1 µM |
| Ac-LQTAR[S5]IQR[S5]L[2Nal]-NH2 (staple 6-10) [SEQ ID NO: 75] | 6.29 µM |
| Ac-LQTLR[S5]IQR[S5][dL][2Nal]-NH2 (staple 6-10) [SEQ ID NO: 105] | 10.7 µM |
| Ac-LQTLR[S5]AQR[S5]L[2Nal]-NH2 (staple 6-10) [SEQ ID NO: 76] | 8.99 µM |
| {5‑phenylvaleric acid}-L[NMeQ]TLR[S5]IQR[S5][Cba][2Nal]-NH2 (staple 6-10; not fully specified) [SEQ ID NO: 142] | 6.07 µM |
| {4‑(trifluoromethyl)benzoic acid}-L[NMeQ]TLR[S5]IQR[S5][Cba][2Nal]-NH2 (staple 6-10; not fully specified, the footnote mark in T0158 is printed 19, seemingly for 10) [SEQ ID NO: 141] | 2.25 µM |

Now those with a lower IC50, led by results:

| IC50 | Binder |
| --- | --- |
| 0.913 µM | Ac-LETLR[S5]IQR[S5][Cba][2Nal]-NH2 (staple 6-10) [SEQ ID NO: 109] |
| 0.43 µM | Ac-HRQRSLQTL[hArg][S5]IQR[S5][Cba][2Nal]-NH2 (staple 11-15) [SEQ ID NO: 170] |
| 0.384 µM | Ac-[NMeC]RQRSLQTLR[S5]IQR[S5][Cha][2Nal]-NH2 (staple 11-15; SMILES CC[C@H](C)[C@@H]1NC(=O)[C@@](C)(NC(=O)[C@H](CCCNC(=N)N)NC(=O)[C@H](CC(C)C)NC(=O)[C@@H](NC(=O)[C@H](CCC(N)=O)NC(=O)[C@H](CC(C)C)NC(=O)[C@H](CO)NC(=O)[C@H](CCCNC(=N)N)NC(=O)[C@H](CCC(N)=O)NC(=O)[C@H](CCCNC(=N)N)NC(=O)[C@H](CS)N(C)C(C)=O)[C@@H](C)O)CCCC=CCCC[C@@](C)(C(=O)N[C@@H](CC2CCCCC2)C(=O)N[C@@H](Cc2ccc3ccccc3c2)C(N)=O)NC(=O)[C@H](CCCNC(=N)N)NC(=O)[C@H](CCC(N)=O)NC1=O) [SEQ ID NO: 217] |
| 0.34 µM | Ac-HRQRSLQTLR[S5]IQ[hArg][S5][Cba][2Nal]-NH2 (staple 11-15) [SEQ ID NO: 171] |
| 0.324 µM | Ac-HRQRS[Cha][NMeQ′]TLR[S5]IQR[S5][Phe(4-F)][2Nal]-NH2 (staple 11-15; not fully specified; printed as HRQRS(Cha)(N-methylQ)TLRXaa3IQRXaa6(4-F-Ph)(2-Nal)) [SEQ ID NO: 200] |
| 0.312 µM | Ac-HR[NMeQ′]RSL[NMeQ′]TLR[S5]IQR[S5][Phe(3,4-Cl2)][2Nal]-NH2 (staple 11-15; not fully specified; printed as HR(N-methylQ)RSL(N-methylQ)TLRXIQRX(3,4-diCl-Ph)(2-Nal), X/X stapled, (S) α-methyl, N-terminal Ac, C-terminal NH2) [SEQ ID NO: 203] |
| 0.305 µM | {Palmitoyl-PEG4″}-HRQRS[Cha][NMeQ′]TLR[S5]IQR[S5][Cha][2Nal]-NH2 (staple 11-15; not fully specified; printed as HRQRS(Cha)(N-methylQ)TLRXaa3IQRXaa6(Cha)(2-Nal)) [SEQ ID NO: 211] |
| 0.294 µM | Ac-HR[NMeQ′]RSL[NMeQ′]TLR[S5]IQR[S5][Phe(4-F)][2Nal]-NH2 (staple 11-15; not fully specified; printed as HR(N-methylQ)RSL(N-methylQ)TLRXIQRX(4-F-Ph)(2-Nal), X/X stapled, (S) α-methyl, N-terminal Ac, C-terminal NH2) [SEQ ID NO: 202] |
| 0.155 µM | Ac-CRQRSLQTLR[S5]IQR[S5][Cha][2Nal]-NH2 (staple 11-15; SMILES CC[C@H](C)[C@@H]1NC(=O)[C@@](C)(NC(=O)[C@H](CCCNC(=N)N)NC(=O)[C@H](CC(C)C)NC(=O)[C@@H](NC(=O)[C@H](CCC(N)=O)NC(=O)[C@H](CC(C)C)NC(=O)[C@H](CO)NC(=O)[C@H](CCCNC(=N)N)NC(=O)[C@H](CCC(N)=O)NC(=O)[C@H](CCCNC(=N)N)NC(=O)[C@H](CS)NC(C)=O)[C@@H](C)O)CCCC=CCCC[C@@](C)(C(=O)N[C@@H](CC2CCCCC2)C(=O)N[C@@H](Cc2ccc3ccccc3c2)C(N)=O)NC(=O)[C@H](CCCNC(=N)N)NC(=O)[C@H](CCC(N)=O)NC1=O) [SEQ ID NO: 216] |
| 0.063 µM | Ac-HRQRSLQTLR[S5]IQR[S5][Phe(4-Cl)][2Nal]-NH2 (staple 11-15; SMILES CC[C@H](C)[C@@H]1NC(=O)[C@@](C)(NC(=O)[C@H](CCCNC(=N)N)NC(=O)[C@H](CC(C)C)NC(=O)[C@@H](NC(=O)[C@H](CCC(N)=O)NC(=O)[C@H](CC(C)C)NC(=O)[C@H](CO)NC(=O)[C@H](CCCNC(=N)N)NC(=O)[C@H](CCC(N)=O)NC(=O)[C@H](CCCNC(=N)N)NC(=O)[C@H](Cc2c[nH]cn2)NC(C)=O)[C@@H](C)O)CCCC=CCCC[C@@](C)(C(=O)N[C@@H](Cc2ccc(Cl)cc2)C(=O)N[C@@H](Cc2ccc3ccccc3c2)C(N)=O)NC(=O)[C@H](CCCNC(=N)N)NC(=O)[C@H](CCC(N)=O)NC1=O) [SEQ ID NO: 196] |
